Target: FLAG-tagged RHOA (UniProt P61586)
Experiment: co-IP

Sequence of UniProt P61586 (P61586 whole entry): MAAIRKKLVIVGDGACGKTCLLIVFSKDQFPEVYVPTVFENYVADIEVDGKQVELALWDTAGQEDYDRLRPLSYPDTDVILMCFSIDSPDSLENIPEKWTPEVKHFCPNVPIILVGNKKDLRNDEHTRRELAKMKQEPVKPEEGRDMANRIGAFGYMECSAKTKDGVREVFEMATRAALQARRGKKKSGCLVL

DAAM1-ΔDAD without microexon (-MIC) (domain or fragment)
decrease of the co-IP signal against the +MIC construct: 40%
